Publication PMC10993188, “RAD51 separation of function mutation disables replication fork maintenance but preserves DSB repair”

Experiments:
RAD51 WT [1] = target: T1, RAD51 WT (Homo sapiens, UniProt Q06609 1-339); assay: stopped-flow PIFE; no Ex27; EMSA: 10 mM Tris-HCl pH 7.5, 10 mM KCl, 1 mM MgCl2, 1 mM ATP, 1 mM DTT, 25 C, 25 nM DNA, 1.1 uM RAD51; BLI: 50 mM Tris-HCl pH 7.5, 50 mM KCl, 5 mM MgCl2, 2 mM ATP, 0.05% Tween 20, 15 nM DNA; stopped-flow buffer not in material; conditions: protein: recombinant; chain copies: 10; label: 5' Cy3; single strand
T1 sequence (Q06609 whole entry): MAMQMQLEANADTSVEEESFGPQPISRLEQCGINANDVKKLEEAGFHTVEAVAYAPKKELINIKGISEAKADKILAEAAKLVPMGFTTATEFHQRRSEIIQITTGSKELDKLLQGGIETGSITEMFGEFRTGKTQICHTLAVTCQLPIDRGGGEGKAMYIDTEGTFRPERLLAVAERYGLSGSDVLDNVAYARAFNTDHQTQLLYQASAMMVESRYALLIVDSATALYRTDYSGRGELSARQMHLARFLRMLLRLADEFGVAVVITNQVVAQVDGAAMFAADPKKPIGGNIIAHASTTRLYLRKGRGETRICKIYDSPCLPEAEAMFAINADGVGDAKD

[2] = target: T2, RAD51 WT;BRCA2 Ex27 peptide (TR2) (Homo sapiens;Homo sapiens, UniProt Q06609;P51587 1-339;, |); assay: stopped-flow PIFE; Ex27 increases amplitude and decreases binding rate; EMSA: 10 mM Tris-HCl pH 7.5, 10 mM KCl, 1 mM MgCl2, 1 mM ATP, 1 mM DTT, 25 C, 25 nM DNA, 1.1 uM RAD51; BLI: 50 mM Tris-HCl pH 7.5, 50 mM KCl, 5 mM MgCl2, 2 mM ATP, 0.05% Tween 20, 15 nM DNA; stopped-flow buffer not in material; conditions: tags: ;; label: 5' Cy3; single strand
RAD51 S181P (SP) [3] = target: T3, RAD51 S181P (SP) (Homo sapiens, UniProt Q06609 1-339, S181P); assay: stopped-flow PIFE; no Ex27; similar mechanism to WT, slower assembly at suboptimal concentrations; EMSA: 10 mM Tris-HCl pH 7.5, 10 mM KCl, 1 mM MgCl2, 1 mM ATP, 1 mM DTT, 25 C, 25 nM DNA, 1.1 uM RAD51; BLI: 50 mM Tris-HCl pH 7.5, 50 mM KCl, 5 mM MgCl2, 2 mM ATP, 0.05% Tween 20, 15 nM DNA; stopped-flow buffer not in material; conditions: protein: recombinant; chain copies: 10; label: 5' Cy3; single strand
T3 sequence (Q06609 whole entry S181P): as the sequence (Q06609 whole entry) above, with S181P counted along it

[4] = target: T2, RAD51 WT;BRCA2 Ex27 peptide (TR2); assay: EMSA super-shift; 5.7 uM Ex27, 1 mM ATP, 1 mM Mg2+; almost completely resistant to GST-BRC3; EMSA: 10 mM Tris-HCl pH 7.5, 10 mM KCl, 1 mM MgCl2, 1 mM ATP, 1 mM DTT, 25 C, 25 nM DNA, 1.1 uM RAD51; BLI: 50 mM Tris-HCl pH 7.5, 50 mM KCl, 5 mM MgCl2, 2 mM ATP, 0.05% Tween 20, 15 nM DNA; stopped-flow buffer not in material; conditions: tags: ;; label: 5' FAM (FITC); single strand
RAD51 WT [5] = target: T1, RAD51 WT; assay: EMSA; 1 mM ATP, 1 mM Mg2+; no Ex27; complex disassembled by GST-BRC3; EMSA: 10 mM Tris-HCl pH 7.5, 10 mM KCl, 1 mM MgCl2, 1 mM ATP, 1 mM DTT, 25 C, 25 nM DNA, 1.1 uM RAD51; BLI: 50 mM Tris-HCl pH 7.5, 50 mM KCl, 5 mM MgCl2, 2 mM ATP, 0.05% Tween 20, 15 nM DNA; stopped-flow buffer not in material; conditions: protein: recombinant; chain copies: 10; label: 5' FAM (FITC); single strand
RAD51 WT [6] = target: T1, RAD51 WT; assay: BLI; 2 mM ATP, 5 mM Mg2+; 2 uM RAD51; dissociated by GST-BRC4; EMSA: 10 mM Tris-HCl pH 7.5, 10 mM KCl, 1 mM MgCl2, 1 mM ATP, 1 mM DTT, 25 C, 25 nM DNA, 1.1 uM RAD51; BLI: 50 mM Tris-HCl pH 7.5, 50 mM KCl, 5 mM MgCl2, 2 mM ATP, 0.05% Tween 20, 15 nM DNA; stopped-flow buffer not in material; conditions: protein: recombinant; chain copies: 10; label: 3' biotin; single strand
RAD51 S181P (SP) [7] = target: T3, RAD51 S181P (SP); assay: as above; conditions: protein: recombinant; chain copies: 10; label: 3' biotin; single strand

B1: Cy3-(dT)79 (ssDNA)
DNA: TTTTTTTTTTTTTTTTTTTTTTTTTTTTTTTTTTTTTTTTTTTTTTTTTTTTTTTTTTTTTTTTTTTTTTTTTTTTTTT
B1: binds (RAD51 WT [1]); binds [2]; binds (RAD51 S181P (SP) [3]).

B2: 5'FITC-90mer ssDNA (ssDNA)
DNA: AAATCAATCTAAAGTATATATGAGTAAACTTGGTCTGACAGTTACCAATGCTTAATCAGTGAGGCACCTATCTCAGCGATCTGTCTATTT
B2: binds [4]; binds (RAD51 WT [5]).

TTTTTTTTTTTTTTTTTTTTTTTTTTTTTTTTTTTTTTTTTTT (ssDNA) [oligo-dT 43-mer]: binds (RAD51 WT [6]); binds (RAD51 S181P (SP) [7]).
